Target: T1, MHC class II I-A^b molecules purified by affinity chromatography (;mouse, UniProt P14434 24-218; P14483 28-226, limits assumed)
T1 construct: Source of the purified I-A^b is not described beyond 'as described (22)'; also called MHC II (I-A^b); MHC II
T1 sequence (MHC II alpha, looked up): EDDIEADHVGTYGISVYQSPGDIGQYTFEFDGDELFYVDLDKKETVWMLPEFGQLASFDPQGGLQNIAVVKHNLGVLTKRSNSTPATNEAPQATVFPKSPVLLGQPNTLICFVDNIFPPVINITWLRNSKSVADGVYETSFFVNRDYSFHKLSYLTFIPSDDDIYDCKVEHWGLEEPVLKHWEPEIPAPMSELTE
T1 sequence (MHC II beta, looked up): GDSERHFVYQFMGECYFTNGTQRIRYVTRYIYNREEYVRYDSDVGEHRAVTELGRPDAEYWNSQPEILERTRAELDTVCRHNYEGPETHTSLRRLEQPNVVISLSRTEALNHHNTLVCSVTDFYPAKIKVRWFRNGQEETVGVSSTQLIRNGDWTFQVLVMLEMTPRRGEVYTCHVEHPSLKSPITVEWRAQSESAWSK
Assay: competitive binding assay, purified I-A^b, radiolabeled competitor peptide
Experimental: We have now examined AQP4 peptide affinity for I-A^b biochemically. I-A^b molecules that were purified by affinity chromatography were tested in a competitive binding assay between a radiolabeled high-affinity competitor peptide and unlabeled peptides (22). Indeed, peptides containing the two pathogenic AQP4 T cell determinants bound I-A^b with higher affinity than the nonpathogenic AQP4 p24-35 T cell epitope or MOG p35-55 (FIG. 2D).

fold greater affinity than MOG p35-55: > 10 fold
B1: AQP4 p202-218 (peptide)
peptide: LFAINYTGASMNPARSF
notes: Synthetic peptide (Genemed Synthesis); also called pathogenic AQP4 T cell determinant

From patent US20250052751A1 (University of California, published 2025)
